83 variants from the RNAGym collection of RNA variant scans (doi:10.1093/molbev/msab373) can be followed below.

The labels stand for the following.
B1: Azoarcus group I ribozyme (parent)
chain: GUGCCUUGCGCCGGGAAACCACGCAAGGGAUGGUGUCAAAUUCGGCGAAACCUAAGCGCCCGCCCGGGCGUAUGGCAACGCCGAGCCAAGCUUCGGCGCCUGCGCCGAUGAAGGUGUAGAGACUAGACGGCACCCACCUAAGGCAAACGCUAUGGUGAAGGCAUAGUCCAGGGAGUGGCGAAAGUCACACAAACCGG

This data set covers variants of B1. In words: reverse-splicing fitness (ratio to wild type); higher = more active; in vitro selection; Mg2+ level not given. In a few lines: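 An in vitro group I ribozyme library with randomized positions was T7-transcribed and gel-purified. In triplicate, 10 pmol RNA in EPPS pH 7.5 was reacted with 50 pmoles of a 30-nt RNA substrate for 1 h at 37 °C across several added MgCl2 levels (1–48 mM), then stopped with EDTA. Products were reverse transcribed from a substrate-complementary primer, PCR-amplified and sequenced (HiSeq 4000). Fitness is a variant's read proportion after selection over that before, normalised to wild type.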
Take C82G A111U A145C C150A C169G U176C: the reverse-splicing fitness was found to be 0.0155.
On to C82U A111U A120C A145G C150A C169U U176C, for which the reverse-splicing fitness was 0.0167.
Regarding C82U A120U, the reverse-splicing fitness came out at 0.174.
In the case of C82G A120G A145U C150U C169A U176C, the reverse-splicing fitness turned out to be 0.0133.
Next, C82G A111U A120G A145G C150G C169U U176G: 0.00754; C82U A111C A120G A145G C150U C169A U176A: 0.0136.
In the case of A111G A120C A145U C150G C169A U176C it was 0.00745.
In the case of A111G A145U C150A C169A it was 0.0105; in that of A111G C150A C169A U176C, 0.0177.
Turning to C82A A120C A145C, the reverse-splicing fitness is 0.124.
On to C82A A111G A120C A145C C150U U176A, for which the reverse-splicing fitness was 0.0118.
Consider C82U A120C A145C C150A C169A U176G, for which the reverse-splicing fitness stood at 0.00369.
As for A111C A120G C150U U176G, the reverse-splicing fitness turned out to be 0.00599.
Next, C82G A145U C150G C169G U176G: 0.00508; C82U A120G C150A C169G U176C: 0.0214.
As to C82G A111U A120C A145U C150U C169U U176C, the reverse-splicing fitness is 0.0137.
In the case of C82U A111U A120U A145U C169U U176G, the reverse-splicing fitness was 0.00177.
Next, A111C A120G A145U C150A: 0.0185; A111G A120U A145G C150G C169A: 0.00794; C82U A111C A120G C150G C169G: 0.00667.
With C82U A111U A120G C169A U176G, the reverse-splicing fitness was 0.00417.
Next, C82G A111U A120G C150G C169A U176C: 0.0111; C82G A111U A120U A145C C169A U176A: 0.00191; C82G A111C A120G A145U C150U U176C: 0.0179.
As to C82U A120C A145G C150G C169U U176C, the reverse-splicing fitness worked out at 0.0111.
Take C82A A111U A120C A145C C150G C169U U176G: the reverse-splicing fitness was found to be 0.00543.
Next, C82G A120G A145G C150U C169U: 0.0236; C82U A145G C150G C169U: 0.00979.
As to C82A A111U A145C C150U C169G, the reverse-splicing fitness came to 0.00788.
With C82U A120U A145G C169U U176C, the reverse-splicing fitness is 0.00381.
In the case of C82U A120U A145G C169U U176G it was 0.00155; in that of A111G A120C A145C C150U, 0.298.
Regarding C82G A111C A120G A145C C150G C169U U176G, the reverse-splicing fitness was 0.00513.
For the variant C82A A120U A145C U176C, the reverse-splicing fitness amounted to 0.0456.
In the case of C82U A111U A120C U176G it was 0.00482; in that of A111U A120C A145C C150U C169U, 0.05.
For the variant A111C A120C A145U C150A U176G, the reverse-splicing fitness came out at 0.00986.
Take C82U A111U A120U C150U C169A U176G: the reverse-splicing fitness amounted to 0.00205.
In the case of C82U A111G A120G C150A C169U U176A, the reverse-splicing fitness came out at 0.0248.
Consider C82A A111U C169G, for which the reverse-splicing fitness was determined as 0.00884.
As to C82A A120G A145G C150A C169U U176A, the reverse-splicing fitness is 0.0211.
Next, C82U A120U C150U C169G: 0.00457; A120G A145G C150G: 0.088.
As to C82A A120U A145U C150G C169U U176C, the reverse-splicing fitness was found to be 0.00262.
In the case of A111U A120C A145C C150A C169G it was 0.00677.
Next, C82A A111G A120U A145C C150U C169U U176G: 0.00193; C82U A120U A145G C150A C169G: 0.00351.
In the case of A111G A120U C150A C169U U176A it was 0.0063; in that of C82U A111C A120U A145G C150A C169U U176G, 0.00293.
Take A111C A120C C150A C169G U176G: the reverse-splicing fitness came to 0.00744.
Turning to C82G A111G A120C A145C, the reverse-splicing fitness amounted to 0.0798.
Next, A120U A145C C150G U176G: 0.0278.
Next, C82G A111C A120U A145U U176A: 0.0115.
On to A145G C150U U176A, for which the reverse-splicing fitness was found to be 0.844.
In the case of C82A A111U A120G A145U C150A U176C it was 0.0152; in that of A111U A120U A145C C169A U176G, 0.00152; in that of C82G A111C A120G A145G C150G, 0.00751.
As to C82G A111U C169A U176A, the reverse-splicing fitness is 0.0152.
Regarding C82A A120U A145U C150G U176G, the reverse-splicing fitness was found to be 0.00318.
Next, C82A A111G C169G U176C: 0.0207; A111G A120C A145U C150A U176C: 0.0741; C82G A145C C169U U176A: 0.0128.
In the case of C82G A111C A120G A145U U176C, the reverse-splicing fitness turned out to be 0.0232.
Consider A120U A145C C150U U176A, for which the reverse-splicing fitness is 0.328.
In the case of C82G A111C A120G A145U C150G C169G U176A it was 0.0071; in that of C82U A111U A120G A145U C150A C169A U176C, 0.0092.
In the case of A120C A145U U176G it was 0.318; in that of A111C A120G A145U C150A C169U U176C, 0.0173.
C82U A145C C169A: the reverse-splicing fitness worked out at 0.00714.
Next, C82U A111G C150U C169G U176G: 0.00558.
For C82G A111G A145G, the reverse-splicing fitness amounted to 0.431.
Next, A111G A120G A145G C150A U176A: 0.0225; C82A A111G A120U A145G C150A C169G: 0.00666; C82A A111G A120C C150U C169U U176C: 0.0125.
Consider C82A A111G A120G C150G C169G U176C, for which the reverse-splicing fitness came out at 0.00515.
In the case of C82G A111C A145G C150G C169U U176C it was 0.0116; in that of C82G A111G A120G A145U C150A U176G, 0.00563; in that of C82A A111U A145G C150A U176A, 0.0206.
Regarding C82U A120U C169G, the reverse-splicing fitness stood at 0.00592.
Next, C82G A145C C150A C169G U176A: 0.0223; C82G A111G A145C C150A C169G U176A: 0.0228; A111U A145G C150G C169U U176A: 0.0111.
Consider C82G A111C A120U A145G C150G C169U U176A, for which the reverse-splicing fitness turned out to be 0.00988.
